Assay results from article PMC4012256.

How the values were obtained:
[1] = biological target: αVβ3(N339S) transiently expressed on HEK293T cells (human) (UniProt P06756)
[2] = biological target: αVβ3(N339S) transiently expressed on HEK293T cells (human) (UniProt P06756); assay: flow cytometry on cells
[3] = biological target: wild-type αVβ3 stably expressed in K562 cells (K562-αVβ3) (human) (UniProt P06756); assay: flow cytometry on cells
wild-type αVβ3 stably expressed in K562 cells (K562-αVβ3) (human), sequence (P06756 31-1048, chain 1 of 2): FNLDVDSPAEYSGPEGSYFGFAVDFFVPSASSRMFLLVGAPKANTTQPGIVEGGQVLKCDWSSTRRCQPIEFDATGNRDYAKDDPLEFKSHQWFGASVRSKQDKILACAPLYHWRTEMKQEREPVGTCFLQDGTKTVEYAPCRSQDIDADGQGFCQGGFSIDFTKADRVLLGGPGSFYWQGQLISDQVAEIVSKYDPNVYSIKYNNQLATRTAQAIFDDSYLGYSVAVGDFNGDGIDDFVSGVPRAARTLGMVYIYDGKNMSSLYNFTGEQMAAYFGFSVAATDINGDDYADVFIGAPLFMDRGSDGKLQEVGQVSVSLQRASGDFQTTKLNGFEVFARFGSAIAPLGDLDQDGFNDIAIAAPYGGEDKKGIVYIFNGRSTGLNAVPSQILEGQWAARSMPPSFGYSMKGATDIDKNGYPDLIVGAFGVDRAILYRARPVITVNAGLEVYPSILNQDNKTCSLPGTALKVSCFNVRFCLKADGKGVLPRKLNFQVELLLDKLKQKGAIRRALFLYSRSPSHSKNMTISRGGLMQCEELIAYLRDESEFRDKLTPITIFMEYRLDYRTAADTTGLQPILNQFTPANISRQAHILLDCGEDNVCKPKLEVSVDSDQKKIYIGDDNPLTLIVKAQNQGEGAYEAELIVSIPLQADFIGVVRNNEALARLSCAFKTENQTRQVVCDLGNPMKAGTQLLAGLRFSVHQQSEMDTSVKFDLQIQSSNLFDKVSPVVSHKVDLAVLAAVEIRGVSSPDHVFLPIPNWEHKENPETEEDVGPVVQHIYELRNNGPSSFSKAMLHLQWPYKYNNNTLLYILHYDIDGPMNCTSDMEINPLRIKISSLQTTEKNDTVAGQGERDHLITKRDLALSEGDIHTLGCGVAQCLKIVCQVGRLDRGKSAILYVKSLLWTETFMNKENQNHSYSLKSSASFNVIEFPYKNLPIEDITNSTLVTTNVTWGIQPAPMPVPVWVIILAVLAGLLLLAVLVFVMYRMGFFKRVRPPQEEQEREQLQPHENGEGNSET
wild-type αVβ3 stably expressed in K562 cells (K562-αVβ3) (human), sequence (P05106 27-788, chain 2 of 2, further chain): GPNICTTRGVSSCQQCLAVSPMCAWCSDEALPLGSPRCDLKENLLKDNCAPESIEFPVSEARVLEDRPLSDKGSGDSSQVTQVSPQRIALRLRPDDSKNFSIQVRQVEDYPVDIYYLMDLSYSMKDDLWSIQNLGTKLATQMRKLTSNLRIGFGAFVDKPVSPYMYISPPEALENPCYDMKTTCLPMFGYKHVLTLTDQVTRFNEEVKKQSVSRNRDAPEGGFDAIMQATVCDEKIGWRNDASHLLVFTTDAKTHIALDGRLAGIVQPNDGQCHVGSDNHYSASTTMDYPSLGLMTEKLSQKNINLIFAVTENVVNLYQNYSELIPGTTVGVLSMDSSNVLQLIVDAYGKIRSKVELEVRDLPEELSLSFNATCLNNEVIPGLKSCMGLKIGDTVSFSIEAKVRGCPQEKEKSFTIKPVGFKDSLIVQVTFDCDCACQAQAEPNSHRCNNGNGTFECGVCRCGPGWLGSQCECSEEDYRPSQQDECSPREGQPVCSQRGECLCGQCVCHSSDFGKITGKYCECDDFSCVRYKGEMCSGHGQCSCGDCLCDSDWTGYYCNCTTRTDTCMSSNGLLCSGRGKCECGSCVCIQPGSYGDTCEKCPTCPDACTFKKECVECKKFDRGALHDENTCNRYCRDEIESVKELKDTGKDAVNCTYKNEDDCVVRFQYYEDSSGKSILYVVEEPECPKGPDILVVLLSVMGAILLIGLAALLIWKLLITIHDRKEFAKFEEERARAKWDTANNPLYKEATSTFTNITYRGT

10th type III RGD-domain of wild-type fibronectin (wtFN10) (domain or fragment), sequence (P02751 45-2432): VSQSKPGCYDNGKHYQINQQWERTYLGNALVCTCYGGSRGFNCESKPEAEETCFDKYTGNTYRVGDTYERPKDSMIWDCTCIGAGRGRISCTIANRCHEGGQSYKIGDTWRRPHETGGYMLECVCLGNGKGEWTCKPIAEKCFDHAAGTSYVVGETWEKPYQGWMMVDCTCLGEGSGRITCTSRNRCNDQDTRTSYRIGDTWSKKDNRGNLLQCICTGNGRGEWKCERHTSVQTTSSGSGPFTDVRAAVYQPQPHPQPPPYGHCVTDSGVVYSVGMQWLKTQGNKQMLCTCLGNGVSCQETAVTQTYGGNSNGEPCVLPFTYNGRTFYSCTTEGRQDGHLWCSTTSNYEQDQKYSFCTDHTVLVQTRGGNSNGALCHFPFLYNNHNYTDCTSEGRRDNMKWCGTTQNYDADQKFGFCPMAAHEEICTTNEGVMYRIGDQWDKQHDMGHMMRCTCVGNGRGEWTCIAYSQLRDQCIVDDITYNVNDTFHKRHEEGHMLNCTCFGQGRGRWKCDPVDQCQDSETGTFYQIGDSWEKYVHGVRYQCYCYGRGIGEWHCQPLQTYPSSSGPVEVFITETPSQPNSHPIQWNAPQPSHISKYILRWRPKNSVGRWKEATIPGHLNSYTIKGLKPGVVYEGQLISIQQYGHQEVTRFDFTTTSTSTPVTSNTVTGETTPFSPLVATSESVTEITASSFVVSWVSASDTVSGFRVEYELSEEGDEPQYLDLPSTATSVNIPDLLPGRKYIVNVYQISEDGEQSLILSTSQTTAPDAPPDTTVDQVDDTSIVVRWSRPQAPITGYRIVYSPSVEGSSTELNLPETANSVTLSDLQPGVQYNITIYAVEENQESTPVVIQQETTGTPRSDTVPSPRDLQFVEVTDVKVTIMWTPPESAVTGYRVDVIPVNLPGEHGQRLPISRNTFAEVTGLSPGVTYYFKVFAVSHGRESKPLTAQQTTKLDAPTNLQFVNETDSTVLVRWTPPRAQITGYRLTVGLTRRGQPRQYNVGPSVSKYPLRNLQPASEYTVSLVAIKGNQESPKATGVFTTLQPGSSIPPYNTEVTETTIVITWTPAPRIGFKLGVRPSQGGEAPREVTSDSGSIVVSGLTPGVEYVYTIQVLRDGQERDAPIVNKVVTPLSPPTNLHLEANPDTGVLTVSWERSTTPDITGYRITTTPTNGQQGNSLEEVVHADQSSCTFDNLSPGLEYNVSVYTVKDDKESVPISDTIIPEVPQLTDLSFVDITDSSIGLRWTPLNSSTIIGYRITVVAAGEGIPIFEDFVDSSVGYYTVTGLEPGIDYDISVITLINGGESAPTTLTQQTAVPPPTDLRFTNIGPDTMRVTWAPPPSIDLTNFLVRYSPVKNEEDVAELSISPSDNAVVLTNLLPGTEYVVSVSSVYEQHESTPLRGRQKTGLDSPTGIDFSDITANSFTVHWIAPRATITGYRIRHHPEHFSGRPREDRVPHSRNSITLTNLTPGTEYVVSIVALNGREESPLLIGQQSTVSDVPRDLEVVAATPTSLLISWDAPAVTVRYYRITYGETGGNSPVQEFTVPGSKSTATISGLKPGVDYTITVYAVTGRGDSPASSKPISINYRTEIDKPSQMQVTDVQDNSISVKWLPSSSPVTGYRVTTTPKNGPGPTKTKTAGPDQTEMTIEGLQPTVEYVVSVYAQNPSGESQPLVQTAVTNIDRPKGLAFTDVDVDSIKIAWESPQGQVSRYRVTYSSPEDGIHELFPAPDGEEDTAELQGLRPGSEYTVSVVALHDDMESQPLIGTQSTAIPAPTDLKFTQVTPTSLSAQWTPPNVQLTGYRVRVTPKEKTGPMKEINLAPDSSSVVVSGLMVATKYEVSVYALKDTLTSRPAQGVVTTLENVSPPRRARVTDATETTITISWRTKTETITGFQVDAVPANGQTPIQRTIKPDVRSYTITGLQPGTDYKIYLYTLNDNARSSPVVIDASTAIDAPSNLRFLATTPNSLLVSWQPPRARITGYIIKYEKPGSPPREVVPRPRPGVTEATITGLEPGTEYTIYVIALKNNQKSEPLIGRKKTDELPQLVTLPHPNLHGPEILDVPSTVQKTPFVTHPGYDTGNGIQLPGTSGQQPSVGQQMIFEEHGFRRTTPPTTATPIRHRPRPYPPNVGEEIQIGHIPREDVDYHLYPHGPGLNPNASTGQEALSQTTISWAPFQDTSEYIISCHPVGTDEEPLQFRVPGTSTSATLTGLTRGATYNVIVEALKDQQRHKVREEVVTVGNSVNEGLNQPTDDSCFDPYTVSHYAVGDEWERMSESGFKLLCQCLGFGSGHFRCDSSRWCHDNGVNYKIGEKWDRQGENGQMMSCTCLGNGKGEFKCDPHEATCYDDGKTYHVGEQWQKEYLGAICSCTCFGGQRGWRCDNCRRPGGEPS
αVβ3(N339S) transiently expressed on HEK293T cells (human), sequence (P06756 31-1048, chain 1 of 2): as the sequence (P06756 31-1048, chain 1 of 2) above
αVβ3(N339S) transiently expressed on HEK293T cells (human), sequence (P05106 27-788 N339S, chain 2 of 2, further chain): as the sequence (P05106 27-788, chain 2 of 2, further chain) above, with N313S counted along it

AP5 epitope expression (flow cytometry, HEK293T) [1]: 2 fold
fold increase of binding by the N339S mutation over wild-type αVβ3 [2]: 6 fold
fold increase of binding (MFI) in Mn2+ over Ca2+-Mg2+ [3]: 10 fold
Substance: 10th type III RGD-domain of wild-type fibronectin (wtFN10) (domain or fragment)
